In publication PMC11404569, “ECT2 peptide sequences outside the YTH domain regulate its m6A-RNA binding”:

How the values were obtained:
Settings in all cases: protein: recombinant; tags: N-terminal His-SUMO; label: 5' FAM
ECT2-108 YTH mut = target: T1, ECT2-108 YTH mut (Arabidopsis thaliana, UniProt Q9LJE5 108-667, W464A;W521A;W526A); experiment: EMSA; up to 500 nM; EMSA: 10 nM FAM-RNA; binding buffer 10 mM HEPES pH 8.0, 50 mM KCl, 1 mM EDTA, 0.05% Triton X-100, 5% glycerol, 10 µg/mL salmon DNA, 1 mM DTT, 40 U/mL RNasin; 20 min on ice; native 8% acrylamide TBE gel at 4°C
T1 sequence: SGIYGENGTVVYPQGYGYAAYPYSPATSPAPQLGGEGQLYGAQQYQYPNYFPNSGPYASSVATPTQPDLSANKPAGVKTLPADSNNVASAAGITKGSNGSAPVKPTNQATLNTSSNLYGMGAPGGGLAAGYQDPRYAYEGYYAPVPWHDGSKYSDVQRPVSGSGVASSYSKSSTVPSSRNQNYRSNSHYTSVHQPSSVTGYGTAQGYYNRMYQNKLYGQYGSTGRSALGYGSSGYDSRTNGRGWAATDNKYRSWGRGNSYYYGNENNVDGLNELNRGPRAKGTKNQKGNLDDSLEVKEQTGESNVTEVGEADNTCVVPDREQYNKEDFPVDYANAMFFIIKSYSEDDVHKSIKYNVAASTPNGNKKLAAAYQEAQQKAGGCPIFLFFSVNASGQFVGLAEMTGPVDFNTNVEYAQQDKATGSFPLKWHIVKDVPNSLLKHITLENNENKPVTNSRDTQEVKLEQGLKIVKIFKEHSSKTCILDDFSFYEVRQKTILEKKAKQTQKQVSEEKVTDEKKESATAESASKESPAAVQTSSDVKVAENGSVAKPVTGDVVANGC

ECT2-303 YTH mut = target: T2, ECT2-303 YTH mut (Arabidopsis thaliana, UniProt Q9LJE5 303-667, W464A;W521A;W526A); experiment: as above
T2 sequence: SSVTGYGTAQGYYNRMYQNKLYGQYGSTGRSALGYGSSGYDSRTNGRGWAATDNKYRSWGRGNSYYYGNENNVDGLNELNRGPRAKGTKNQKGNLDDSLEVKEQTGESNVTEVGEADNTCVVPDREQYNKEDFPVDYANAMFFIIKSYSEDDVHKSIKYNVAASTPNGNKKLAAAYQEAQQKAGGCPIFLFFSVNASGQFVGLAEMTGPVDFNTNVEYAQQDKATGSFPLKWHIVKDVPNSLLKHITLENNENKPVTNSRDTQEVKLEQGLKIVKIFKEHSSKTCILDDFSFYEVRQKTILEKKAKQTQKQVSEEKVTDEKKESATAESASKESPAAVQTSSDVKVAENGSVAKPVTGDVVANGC

ECT2-Fl mut (YTH mut) = target: T3, ECT2-Fl mut (YTH mut) (Arabidopsis thaliana, UniProt Q9LJE5 1-667, W464A;W521A;W526A); experiment: EMSA; EMSA: 10 nM FAM-RNA; binding buffer 10 mM HEPES pH 8.0, 50 mM KCl, 1 mM EDTA, 0.05% Triton X-100, 5% glycerol, 10 µg/mL salmon DNA, 1 mM DTT, 40 U/mL RNasin; 20 min on ice; native 8% acrylamide TBE gel at 4°C
T3 sequence: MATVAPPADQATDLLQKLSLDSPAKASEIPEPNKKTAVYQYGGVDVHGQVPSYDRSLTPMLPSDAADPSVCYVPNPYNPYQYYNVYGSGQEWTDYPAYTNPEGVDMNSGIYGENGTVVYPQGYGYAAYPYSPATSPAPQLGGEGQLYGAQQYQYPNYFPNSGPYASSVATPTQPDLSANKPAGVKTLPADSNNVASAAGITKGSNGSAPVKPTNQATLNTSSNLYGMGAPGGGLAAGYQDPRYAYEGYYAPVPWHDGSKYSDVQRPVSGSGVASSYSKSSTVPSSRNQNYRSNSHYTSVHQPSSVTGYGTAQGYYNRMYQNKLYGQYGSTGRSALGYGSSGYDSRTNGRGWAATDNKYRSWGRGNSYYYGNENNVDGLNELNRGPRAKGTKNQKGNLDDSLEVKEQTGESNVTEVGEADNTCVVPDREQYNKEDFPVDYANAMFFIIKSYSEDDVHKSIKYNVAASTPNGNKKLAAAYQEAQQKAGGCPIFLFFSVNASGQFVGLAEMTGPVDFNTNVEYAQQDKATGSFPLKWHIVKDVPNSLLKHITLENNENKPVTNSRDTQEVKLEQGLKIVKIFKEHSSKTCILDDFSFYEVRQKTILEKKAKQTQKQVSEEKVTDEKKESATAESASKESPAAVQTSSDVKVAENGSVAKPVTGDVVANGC

ECT2-Δα0 = target: T4, ECT2-Δα0 (Arabidopsis thaliana, UniProt Q9LJE5 1-667, del419-427); experiment: EMSA; close to full length, doublet kept; EMSA: 10 nM FAM-RNA; binding buffer 10 mM HEPES pH 8.0, 50 mM KCl, 1 mM EDTA, 0.05% Triton X-100, 5% glycerol, 10 µg/mL salmon DNA, 1 mM DTT, 40 U/mL RNasin; 20 min on ice; native 8% acrylamide TBE gel at 4°C
T4 sequence: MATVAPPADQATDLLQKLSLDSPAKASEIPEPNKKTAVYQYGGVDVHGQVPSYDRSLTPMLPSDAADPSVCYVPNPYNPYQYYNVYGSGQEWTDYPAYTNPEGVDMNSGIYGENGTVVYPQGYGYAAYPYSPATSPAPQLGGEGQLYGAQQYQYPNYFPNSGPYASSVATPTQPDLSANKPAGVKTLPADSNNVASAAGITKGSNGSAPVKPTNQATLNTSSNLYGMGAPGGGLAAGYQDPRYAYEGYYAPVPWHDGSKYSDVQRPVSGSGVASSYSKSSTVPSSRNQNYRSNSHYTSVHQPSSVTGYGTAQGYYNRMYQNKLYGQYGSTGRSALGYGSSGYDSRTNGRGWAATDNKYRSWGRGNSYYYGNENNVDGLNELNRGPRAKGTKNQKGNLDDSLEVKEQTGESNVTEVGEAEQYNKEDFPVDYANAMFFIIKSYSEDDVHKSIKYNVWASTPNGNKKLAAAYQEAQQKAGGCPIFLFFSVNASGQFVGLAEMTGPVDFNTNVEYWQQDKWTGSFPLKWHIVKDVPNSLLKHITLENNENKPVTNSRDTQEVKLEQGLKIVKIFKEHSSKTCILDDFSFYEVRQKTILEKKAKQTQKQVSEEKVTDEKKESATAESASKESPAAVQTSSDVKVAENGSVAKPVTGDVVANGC

B1: Probe I m6A (ssRNA)
RNA: AUGGGCCGUUCAUCUGCUAAAAGGACUGCUUUUGGGGCUUGU
modifications: m6A at position 25; thiol-protected 3' bases (*G*U)
B1: no binding (ECT2-108 YTH mut); no binding (ECT2-303 YTH mut); no binding (ECT2-Fl mut (YTH mut)). B1: binds (ECT2-Δα0).
